For assay [1], the target named is Kv1.2. In words: patch-clamp, block of channel current. A general note: The patch-clamp technique gives a direct electrical read-out from membranes.
The target in assay [2] is Kv1.6. Briefly: patch-clamp, block of channel current.
The target in assay [3] is Kv3.2. In words: patch-clamp, block of channel current.
The target of assay [4] is Kv1.2. Briefly: patch-clamp, ratio of Kd values; reference margatoxin on Kv1.3.
Assay [5] deals with Kv1.6. The assay is described as above.
The target of assay [6] is Kv3.2. The assay is described as above.
In assay [7] the target is Kv1.3 (cloned) (UniProt P16390).
Assay [8] has the same target. This is another data set of the same source.
In assay [9] the target is Kv1.1 (Mus musculus (Mouse)) (UniProt P16388). In words: patch-clamp, ratio of Kd values; reference ShK(L6) on Kv1.3.
Assay [10] deals with Kv1.1 (UniProt P16388).

The term Kd denotes the equilibrium constant for the complex coming apart.

Read-outs that look alike come from different tables or passages of the source.

Chain of Kv1.6 (P17658 whole entry): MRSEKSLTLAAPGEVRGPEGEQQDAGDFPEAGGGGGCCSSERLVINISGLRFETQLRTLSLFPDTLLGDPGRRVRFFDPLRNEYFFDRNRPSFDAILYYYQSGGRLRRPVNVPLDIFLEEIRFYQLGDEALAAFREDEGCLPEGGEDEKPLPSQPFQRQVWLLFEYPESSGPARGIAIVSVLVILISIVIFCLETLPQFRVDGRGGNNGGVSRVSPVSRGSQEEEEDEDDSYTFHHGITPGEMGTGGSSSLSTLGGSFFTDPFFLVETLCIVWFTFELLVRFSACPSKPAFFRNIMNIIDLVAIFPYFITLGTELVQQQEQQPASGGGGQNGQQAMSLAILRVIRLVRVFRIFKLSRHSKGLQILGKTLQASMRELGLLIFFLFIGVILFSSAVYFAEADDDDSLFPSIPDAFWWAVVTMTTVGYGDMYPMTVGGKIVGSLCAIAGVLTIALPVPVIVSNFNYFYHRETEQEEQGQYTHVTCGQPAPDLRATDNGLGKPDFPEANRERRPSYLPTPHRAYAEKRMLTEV
Chain of Kv1.2 (P63142 whole entry): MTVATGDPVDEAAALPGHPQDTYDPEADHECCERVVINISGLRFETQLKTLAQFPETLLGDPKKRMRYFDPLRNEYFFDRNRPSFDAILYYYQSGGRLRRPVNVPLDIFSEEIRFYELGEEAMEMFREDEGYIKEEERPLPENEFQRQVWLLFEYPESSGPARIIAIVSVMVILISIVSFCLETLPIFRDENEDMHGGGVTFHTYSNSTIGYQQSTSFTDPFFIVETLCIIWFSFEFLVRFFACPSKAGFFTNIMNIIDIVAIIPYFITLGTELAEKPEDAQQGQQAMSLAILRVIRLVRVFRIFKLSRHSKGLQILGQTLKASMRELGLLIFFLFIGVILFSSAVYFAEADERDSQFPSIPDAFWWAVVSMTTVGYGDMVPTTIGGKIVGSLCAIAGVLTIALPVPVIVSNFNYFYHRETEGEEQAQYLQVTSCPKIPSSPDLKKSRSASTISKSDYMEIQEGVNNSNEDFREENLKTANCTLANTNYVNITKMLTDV
Chain of Kv3.2 (P22462 whole entry): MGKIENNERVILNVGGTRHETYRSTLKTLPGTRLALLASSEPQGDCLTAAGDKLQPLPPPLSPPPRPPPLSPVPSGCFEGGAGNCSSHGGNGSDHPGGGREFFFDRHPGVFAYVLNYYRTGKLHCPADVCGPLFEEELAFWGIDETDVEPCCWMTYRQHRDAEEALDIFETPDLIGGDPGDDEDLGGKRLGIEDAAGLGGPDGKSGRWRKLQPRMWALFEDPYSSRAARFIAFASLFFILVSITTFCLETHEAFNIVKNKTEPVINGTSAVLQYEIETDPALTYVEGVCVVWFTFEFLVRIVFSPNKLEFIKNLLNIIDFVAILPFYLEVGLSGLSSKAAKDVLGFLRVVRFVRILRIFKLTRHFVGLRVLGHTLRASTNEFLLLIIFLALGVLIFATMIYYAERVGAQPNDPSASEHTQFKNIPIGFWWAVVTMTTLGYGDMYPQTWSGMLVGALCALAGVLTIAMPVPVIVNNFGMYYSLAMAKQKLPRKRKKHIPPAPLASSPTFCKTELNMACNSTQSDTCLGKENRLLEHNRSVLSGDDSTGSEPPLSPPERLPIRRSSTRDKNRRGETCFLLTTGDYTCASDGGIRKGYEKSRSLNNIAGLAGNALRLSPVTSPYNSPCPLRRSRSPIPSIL
Chain of Kv1.1 (Mus musculus (Mouse)) (P16388 whole entry): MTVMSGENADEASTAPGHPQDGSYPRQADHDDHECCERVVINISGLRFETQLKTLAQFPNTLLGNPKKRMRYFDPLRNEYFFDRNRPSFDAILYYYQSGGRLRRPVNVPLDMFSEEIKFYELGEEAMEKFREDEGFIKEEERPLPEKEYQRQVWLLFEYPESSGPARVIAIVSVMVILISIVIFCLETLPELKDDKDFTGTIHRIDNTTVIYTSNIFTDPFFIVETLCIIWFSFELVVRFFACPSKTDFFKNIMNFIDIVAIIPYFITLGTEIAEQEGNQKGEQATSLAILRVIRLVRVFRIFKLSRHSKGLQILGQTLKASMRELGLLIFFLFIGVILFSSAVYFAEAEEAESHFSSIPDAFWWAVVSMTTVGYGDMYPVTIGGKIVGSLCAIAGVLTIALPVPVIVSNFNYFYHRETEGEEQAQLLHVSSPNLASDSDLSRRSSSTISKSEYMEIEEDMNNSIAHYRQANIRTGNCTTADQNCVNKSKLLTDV
Chain of Kv1.1 (P16388 whole entry): as above

Regarding “Margatoxin (from UniProt P40755 1-39) (peptide)”, the Kd is 0.52 nM in [1], > 100 nM in assay [2] and > 100 nM in assay [3]. The fold selectivity for Kv1.3 over this channel in assay [4] was 5 fold; in assay [5], > 1000 fold; in [6] it was > 1000 fold.

With ShK toxin (peptide), the Kd in assay [1] turned out to be 10 nM; in [2] it was 0.2 nM; in [3], 5 nM.

Substance ShK(D5) showed a dissociation constant Kd in assay [7] of 1.1 nM.

Turning to ShK(L6), in assay [8], the Kd was determined as 0.01 nM.

Consider ShK(L6) (peptide), for which the fold selectivity for Kv1.3 over this channel in assay [9] is 11 fold.

As for ShK-F6CA, the Kd in assay [10] is 4 nM.

The record behind these values is patent US8080523.
